Results published in paper PMC6167357 (2018).
“And” between values parts separate entries of the source, which are not always exact repeats. Equal values may be shown once.

Molecular target: F-actin (Sus scrofa)
Assay: co-sedimentation

Kd: ~17 µM and ~7 µM
B1: titin N2A Ig80-IS-Ig81-Ig82-Ig83 (protein)
chain: SIRVVEKTTATFIAKVGGDPIPNVKWTKGKWRQLNQGGRILIHQKGDEAKLEIRDTTKTDSGLYRCVAFNKHGEIESNVNLQVDERKKQEKIEGDLRAMLKKTPALKKGSGEEEEIDIMELLKNVDPKEYEKYARMYGITDFRGLLQAFELLKQSQEEETHRLEIEELEKSERDEKEFEELVAFIQQRLTQTEPVTLIKDIENQTVLKDNDAIFEIDIKINYPEIKLSWYKGTEKLEPSNKYEISIDGDRHTLRVKNCQPKDQGNYRLVCGPHIASAKLTVIEPAWERHLQDVTLKEGQTCTMTCQFSVPNVKSEWFRNGRVLKPQGRVKTEVEHKVHKLTIADVRAEDQGQYTCKHEDLETSAELRIEAEPIQFTKRIQNIVVSEHQSATFECEVSFDDAIVTWYKGPTELTESQKYNFRNDGRCHYMTIHNVTPDDEGVYSVIARLEPRGEARSTAELYLTTKEIKLEMKPPDIPDSRVPIPTMPIRAVPPEEIPPAVAPSIPLLLPLP
